± gives the standard deviation of the averaged measurements.
Experiment: total protein half-life in vivo (active degradation + dilution); higher = more stable protein
[1] = E. coli NCM3722 delta-clpP delta-lon delta-hslV, growth: N-lim chemostat, doubling time 6 h
[2] = E. coli NCM3722 delta-clpP, growth: N-lim chemostat, doubling time 6 h
[3] = E. coli NCM3722 delta-hslV, growth: N-lim chemostat, doubling time 6 h
[4] = E. coli NCM3722 delta-lon, growth: N-lim chemostat, doubling time 6 h
[5] = E. coli NCM3722 delta-smpB, growth: N-lim chemostat, doubling time 6 h
[6] = wild type E. coli NCM3722, growth: C-lim chemostat, doubling time 3 h
[7] = wild type E. coli NCM3722, growth: C-lim chemostat, doubling time 6 h
[8] = wild type E. coli NCM3722, growth: C-lim chemostat, doubling time 12 h
[9] = wild type E. coli NCM3722, growth: N-lim chemostat, doubling time 6 h
[10] = wild type E. coli NCM3722, growth: N-lim chemostat, doubling time 12 h
[11] = wild type E. coli NCM3722, growth: P-lim chemostat, doubling time 6 h
[12] = wild type E. coli NCM3722, growth: P-lim chemostat, doubling time 12 h

MKTRTQQIEELQKEWTQPRWEGITRPYSAEDVVKLRGSVNPECTLAQLGAAKMWRLLHGESKKGYINSLGALTGGQALQQAKAGIEAVYLSGWQVAADANLAASMYPDQSLYPANSVPAVVERINNTFRRADQIQWSAGIEPGDPRYVDYFLPIVADAEAGFGGVLNAFELMKAMIEAGAAAVHFEDQLASVKKCGHMGGKVLVPTQEAIQKLVAARLAADVTGVPTLLVARTDADAADLITSDCDPYDSEFITGERTSEGFFRTHAGIEQAISRGLAYAPYADLVWCETSTPDLELARRFAQAIHAKYPGKLLAYNCSPSFNWQKNLDDKTIASFQQQLSDMGYKFQFITLAGIHSMWFNMFDLANAYAQGEGMKHYVEKVQQPEFAAAKDGYTFVSHQQEVGTGYFDKVTTIIQGGTSSVTALTGSTEESQF [P0A9G6]
total protein half-life in vivo [1]: 3.78 ± 0.38 h
total protein half-life in vivo [2]: 3.26 ± 0.34 h
total protein half-life in vivo [3]: 2.33 ± 0.14 h
total protein half-life in vivo [4]: 2.71 ± 0.22 h
total protein half-life in vivo [5]: 2.51 ± 0.07 h
total protein half-life in vivo [6]: 3.19 ± 0.085 h
total protein half-life in vivo [7]: 4.78 ± 0.25 h
total protein half-life in vivo [8]: 7.76 ± 0.96 h
total protein half-life in vivo [9]: 3.01 ± 0.6 h
total protein half-life in vivo [10]: 3.15 ± 0.29 h
total protein half-life in vivo [11]: 5.05 ± 0.28 h
total protein half-life in vivo [12]: 11.2 ± 3.2 h

MSFMVSEEVTVKEGGPRMIVTGYSSGMVECRWYDGYGVKREAFHETELVPGEGSRSAEEV
total protein half-life in vivo [1]: 5.18 h
total protein half-life in vivo [2]: 0.609 ± 0.66 h
total protein half-life in vivo [6]: 0.36 h
total protein half-life in vivo [7]: 0.469 h

MRVDAIAKVTGRARYTDDYVMAGMCYAKYVRSPIAHGYAVSINDEQARSLPGVLAIFTWEDVPDIPFATAGHAWTLDENKRDTADRALLTRHVRHHGDAVAIVVARDELTAEKAAQLVSIEWQELPVITTPEAALAEDAAPIHNGGNLLKQSTMSTGNVQQTIDAADYQVQGHYQTPVIQHCHMESVTSLAWMEDDSRITIVSSTQIPHIVRRVVGQALDIPWSCVRVIKPFVGGGFGNKQDVLEEPMAAFLTSKLGGIPVKVSLSREECFLATRTRHAFTIDGQMGVNRDGTLKGYSLDVLSNTGAYASHGHSIASAGGNKVAYLYPRCAYAYSSKTCYTNLPSAGAMRGYGAPQVVFAVESMLDDAATALGIDPVEIRLRNAAREGDANPLTGKRIYSAGLPECLEKGRKIFEWEKRRAECQNQQGNLRRGVGVACFSYTSNTWPVGVEIAGARLLMNQDGTINVQSGATEIGQGADTVFSQMVAETVGVPVSDVRVISTQDTDVTPFDPGAFASRQSYVAAPALRSAALLLKEKIIAHAAVMLHQSAMNLTLIKGHIVLVERPEEPLMSLKDLAMDAFYHPERGGQLSAESSIKTTTNPPAFGCTFVDLTVDIALCKVTINRILNVHDSGHILNPLLAEGQVHGGMGMGIGWALFEEMIIDAKSGVVRNPNLLDYKMPTMPDLPQLESAFVEINEPQSAYGHKSLGEPPIIPVAAAIRNAVKMATGVAINTLPLTPKRLYEEFHLAGLI
total protein half-life in vivo [1]: 5 h
total protein half-life in vivo [6]: 1.88 ± 0.088 h
total protein half-life in vivo [7]: 2.81 ± 0.68 h
total protein half-life in vivo [8]: 3.56 ± 1.4 h

MPYDSVYSEKRPPGTLRTAWRKFYSDASAMVGLYGCAGLAVLCIFGGWFAPYGIDQQFLGYQLLPPSWSRYGEVSFFLGTDDLGRDVLSRLLSGAAPTVGGAFVVTLAATICGLVLGTFAGATHGLRSAVLNHILDTLLAIPSLLLAIIVVAFAGPSLSHAMFAVWLALLPRMVRSIYSMVHDELEKEYVIAARLDGASTLNILWFAVMPNITAGLVTEITRALSMAILDIAALGFLDLGAQLPSPEWGAMLGDALELIYVAPWTVMLPGAAIMISVLLVNLLGDGVRRAIIAGVE [P0AGH5]
total protein half-life in vivo [1]: 6.49 h
total protein half-life in vivo [2]: 6.66 h
total protein half-life in vivo [6]: 3.28 ± 0.12 h
total protein half-life in vivo [8]: 11.5 h
total protein half-life in vivo [9]: 6.2 ± 0.26 h
total protein half-life in vivo [10]: 12.8 h
total protein half-life in vivo [11]: 5.92 h
total protein half-life in vivo [12]: 13.7 h

MEKEQLIEIANTIMPFGKYKGRRLIDLPEEYLLWFARKDEFPAGKLGELMQITLLIKTEGLTQLVQPLKRPL [P0AD40]
total protein half-life in vivo [1]: 6.16 ± 0.29 h
total protein half-life in vivo [7]: 5.09 h
total protein half-life in vivo [8]: 6.67 h
total protein half-life in vivo [11]: 3.3 h
total protein half-life in vivo [12]: 8.7 ± 2.7 h

MALLEICCYSMECALTAQQNGADRVELCAAPKEGGLTPSLGVLKSVRQRVTIPVHPIIRPRGGDFCYSDGEFAAILEDVRTVRELGFPGLVTGVLDVDGNVDMPRMEKIMAAAGPLAVTFHRAFDMCANPLYTLNNLAELGIARVLTSGQKSDALQGLSKIMELIAHRDAPIIMAGAGVRAENLHHFLDAGVLEVHSSAGAWQASPMRYRNQGLSMSSDEHADEYSRYIVDGAAVAEMKGIIERHQAK
total protein half-life in vivo [1]: 5.29 ± 1.1 h
total protein half-life in vivo [2]: 5.31 ± 1.4 h
total protein half-life in vivo [3]: 5.99 ± 2.8 h
total protein half-life in vivo [4]: 4.73 ± 0.25 h
total protein half-life in vivo [5]: 4.47 ± 0.33 h
total protein half-life in vivo [6]: 3.26 ± 0.64 h
total protein half-life in vivo [7]: 6.29 ± 0.61 h
total protein half-life in vivo [8]: 9.735 ± 0.081 h
total protein half-life in vivo [9]: 4.35 ± 0.53 h
total protein half-life in vivo [10]: 6.84 ± 0.21 h
total protein half-life in vivo [11]: 5.85 ± 0.37 h
total protein half-life in vivo [12]: 11.8 ± 1.1 h

MNQPLLSVNNLTHLYAPGKGFSDVSFDLWPGEVLGIVGESGSGKTTLLKSISARLTPQQGEIHYENRSLYAMSEADRRRLLRTEWGVVHQHPLDGLRRQVSAGGNIGERLMATGARHYGDIRATAQKWLEEVEIPANRIDDLPTTFSGGMQQRLQIARNLVTHPKLVFMDEPTGGLDVSVQARLLDLLRGLVVELNLAVVIVTHDLGVARLLADRLLVMKQGQVVESGLTDRVLDDPHHPYTQLLVSSVLQN
total protein half-life in vivo [7]: 4.8 h
total protein half-life in vivo [11]: 0.314 h
total protein half-life in vivo [12]: 1.09 ± 0.26 h

MDINNKARIHWACRRGMRELDISIMPFFEHEYDSLSDDEKRIFIRLLECDDPDLFNWLMNHGKPADAELEMMVRLIQTRNRERGPVAI
total protein half-life in vivo [1]: 5.79 ± 0.24 h
total protein half-life in vivo [6]: 3 h
total protein half-life in vivo [8]: 6.71 h
total protein half-life in vivo [11]: 4.97 h
total protein half-life in vivo [12]: 11.3 ± 2.2 h

MAIERTFSIIKPNAVAKNVIGNIFARFEAAGFKIVGTKMLHLTVEQARGFYAEHDGKPFFDGLVEFMTSGPIVVSVLEGENAVQRHRDLLGATNPANALAGTLRADYADSLTENGTHGSDSVESAAREIAYFFGEGEVCPRTR [P0A763]
total protein half-life in vivo [2]: 3.93 ± 0.36 h
total protein half-life in vivo [3]: 3.85 ± 0.32 h
total protein half-life in vivo [4]: 4.39 ± 0.36 h
total protein half-life in vivo [5]: 3.92 ± 0.15 h
total protein half-life in vivo [6]: 3.09 ± 0.092 h
total protein half-life in vivo [7]: 5.64 ± 0.11 h
total protein half-life in vivo [8]: 9.324 ± 0.023 h
total protein half-life in vivo [9]: 3.88 ± 0.28 h
total protein half-life in vivo [10]: 6.19 ± 0.36 h
total protein half-life in vivo [11]: 5 ± 0.82 h
total protein half-life in vivo [12]: 10.6 ± 0.11 h

MNKTEFYADLNRDFNALMAGETSFLATLANTSALLYERLTDINWAGFYLLEDDTLVLGPFQGKIACVRIPVGRGVCGTAVARNQVQRIEDVHVFDGHIACDAASNSEIVLPLVVKNQIIGVLDIDSTVFGRFTDEDEQGLRQLVAQLEKVLATTDYKKFFASVAG
total protein half-life in vivo [1]: 4.82 ± 0.66 h
total protein half-life in vivo [2]: 4.43 ± 0.32 h
total protein half-life in vivo [3]: 4 ± 0.26 h
total protein half-life in vivo [4]: 4.523 ± 0.034 h
total protein half-life in vivo [5]: 4.22 ± 0.21 h
total protein half-life in vivo [6]: 3.22 ± 0.55 h
total protein half-life in vivo [7]: 5.38 ± 0.12 h
total protein half-life in vivo [8]: 11.8 ± 3.1 h
total protein half-life in vivo [9]: 4.33 ± 0.57 h
total protein half-life in vivo [10]: 7.72 ± 0.91 h
total protein half-life in vivo [11]: 5.8 ± 0.83 h
total protein half-life in vivo [12]: 9.9 ± 0.11 h

MNKHTEHDTREHLLATGEQLCLQRGFTGMGLSELLKTAEVPKGSFYHYFRSKEAFGVAMLERHYAAYHQRLTELLQSGEGNYRDRILAYYQQTLNQFCQHGTISGCLTVKLSAEVCDLSEDMRSAMDKGARGVIALLSQALENGRENHCLTFCGEPLQQAQVLYALWLGANLQAKISRSFEPLENALAHVKNIIATPAV
total protein half-life in vivo [1]: 5.12 h
total protein half-life in vivo [2]: 4.66 ± 0.51 h
total protein half-life in vivo [3]: > 8 h
total protein half-life in vivo [4]: 6.18 h
total protein half-life in vivo [5]: 4.66 ± 0.14 h
total protein half-life in vivo [6]: 3.13 ± 0.15 h
total protein half-life in vivo [7]: 5.91 ± 0.12 h
total protein half-life in vivo [8]: 11.7 h
total protein half-life in vivo [9]: 7.06 h
total protein half-life in vivo [11]: 5.25 h
total protein half-life in vivo [12]: 12.7 h

MAGNTIGQLFRVTTFGESHGLALGCIVDGVPPGIPLTEADLQHDLDRRRPGTSRYTTQRREPDQVKILSGVFEGVTTGTSIGLLIENTDQRSQDYSAIKDVFRPGHADYTYEQKYGLRDYRGGGRSSARETAMRVAAGAIAKKYLAEKFGIEIRGCLTQMGDIPLDIKDWSQVEQNPFFCPDPDKIDALDELMRALKKEGDSIGAKVTVVASGVPAGLGEPVFDRLDADIAHALMSINAVKGVEIGDGFDVVALRGSQNRDEITKDGFQSNHAGGILGGISSGQQIIAHMALKPTSSITVPGRTINRFGEEVEMITKGRHDPCVGIRAVPIAEAMLAIVLMDHLLRQRAQNADVKTDIPRW
total protein half-life in vivo [1]: 5.73 ± 0.43 h
total protein half-life in vivo [2]: 5.29 ± 0.1 h
total protein half-life in vivo [3]: 5.199 ± 0.021 h
total protein half-life in vivo [5]: 4.78 ± 0.14 h
total protein half-life in vivo [6]: 3.41 ± 0.23 h
total protein half-life in vivo [7]: 5.92 ± 0.13 h
total protein half-life in vivo [8]: 12 ± 0.84 h
total protein half-life in vivo [9]: 5.09 ± 0.23 h
total protein half-life in vivo [10]: 9.61 ± 0.79 h
total protein half-life in vivo [11]: 6.51 ± 0.34 h
total protein half-life in vivo [12]: 12.6 ± 1.4 h

MFDFASYHRAATLADAINLLADNPQAKLLAGGTDVLIQLHHHNDRYRHIVDIHNLAELRGITLAEDGSLRIGSATTFTQLIEDPITQRHLPALCAAATSIAGPQIRNVATYGGNICNGATSADSATPTLIYDAKLEIHSPRGVRFVPINGFHTGPGKVSLEHDEILVAFHFPPQPKEHAGSAHFKYAMRDAMDISTIGCAAHCRLDNGNFSELRLAFGVAAPTPIRCQHAEQTAQNAPLNLQTLEAISESVLQDVAPRSSWRASKEFRLHLIQTMTKKVISEAVAAAGGKLQ
total protein half-life in vivo [1]: 4.54 ± 1.2 h
total protein half-life in vivo [2]: 2.5 ± 0.1 h
total protein half-life in vivo [3]: 3.19 h
total protein half-life in vivo [4]: 3.61 ± 0.29 h
total protein half-life in vivo [5]: 2.379 ± 0.0096 h
total protein half-life in vivo [6]: 2.25 ± 0.11 h
total protein half-life in vivo [7]: 4.84 ± 0.91 h
total protein half-life in vivo [8]: 6.07 ± 0.36 h
total protein half-life in vivo [9]: 2.52 ± 0.089 h
total protein half-life in vivo [10]: 4 h
total protein half-life in vivo [11]: 4.56 ± 0.36 h
total protein half-life in vivo [12]: 9.6 ± 1.6 h

Reference: the supplement of paper PMC11246515
